Measurements from patent US11325966.

Experiments:
Assay in all cases: cell-based or functional assay
[1] = biological target: HIV-1 Env of pseudovirus Du422.1 (HIV-1)
[2] = biological target: HIV-1 Env of pseudovirus CNE17 (HIV-1)
[3] = biological target: HIV-1 Env of pseudovirus ZM197M.PB7 (HIV-1)
92BR020 N156A (HIV-1) = biological target: 92BR020 N156A (HIV-1)
[4] = biological target: HIV-1 Env of pseudovirus 6480.v4.c25 (HIV-1)
[5] = biological target: HIV-1 Env of pseudovirus CNE21 (HIV-1)
[6] = biological target: HIV-1 Env of pseudovirus 246F C1G (HIV-1)
[7] = biological target: HIV-1 Env of pseudovirus 620345.c01 (HIV-1)
[8] = biological target: HIV-1 Env of pseudovirus BJOX015000.11.5 (HIV-1)
[9] = biological target: HIV-1 Env of pseudovirus CAAN5342.A2 (HIV-1)
[10] = biological target: HIV-1 Env of pseudovirus 231966.c02 (HIV-1)
JR-CSF N392A (HIV-1) = JR-CSF N392A (HIV-1) (UniProt P20871)
[11] = biological target: HIV-1 Env of pseudovirus CAP210.2.00.E8 (HIV-1)
JR-CSF D325A (HIV-1) = JR-CSF D325A (HIV-1) (UniProt P20871)
[12] = biological target: HIV-1 Env of pseudovirus HIV-16055-2.3 (HIV-1)
[13] = biological target: 92BR020 N301A + N332A (HIV-1)
[14] = biological target: BG505 (T332N) N137A (HIV-1)
[15] = biological target: HIV-1 Env of pseudovirus A07412M1.vrc12 (HIV-1)
[16] = biological target: HIV-1 Env of pseudovirus SC05_8C11_2344 (HIV-1)
[17] = biological target: HIV-1 Env of pseudovirus Ce703010054_2A2 (HIV-1)
[18] = biological target: HIV-1 Env of pseudovirus Du156.12 (HIV-1)
[19] = biological target: HIV-1 Env of pseudovirus HIV-16845-2.22 (HIV-1)
[20] = biological target: HIV-1 Env of pseudovirus 191084 B7-19 (HIV-1)
[21] = biological target: HIV-1 Env of pseudovirus 1394C9G1(Rev-) (HIV-1)
92BR020 N136A (HIV-1) = biological target: 92BR020 N136A (HIV-1)
92BR020 I326A (HIV-1) = biological target: 92BR020 I326A (HIV-1)
[22] = biological target: HIV-1 Env of pseudovirus PVO.4 (HIV-1)
[23] = biological target: HIV-1 Env of pseudovirus C4118.c09 (HIV-1)
[24] = biological target: HIV-1 Env of pseudovirus CNE8 (HIV-1)
[25] = biological target: HIV-1 Env of pseudovirus 62357_14_D3_4589 (HIV-1)
[26] = biological target: HIV-1 Env of pseudovirus ZM247v1(Rev-) (HIV-1)
[27] = biological target: HIV-1 Env of pseudovirus P1981_C5_3 (HIV-1)
[28] = biological target: HIV-1 Env of pseudovirus ZM233M.PB6 (HIV-1)
[29] = biological target: HIV-1 Env of pseudovirus 6540.v4.c1 (HIV-1)
[30] = biological target: HIV-1 Env of pseudovirus 3415.v1.c1 (HIV-1)
[31] = biological target: HIV-1 Env of pseudovirus ZM109F.PB4 (HIV-1)
[32] = biological target: HIV-1 Env of pseudovirus WEAU_d15_410_787 (HIV-1)
[33] = biological target: HIV-1 Env of pseudovirus CAP45.2.00.G3 (HIV-1)
92BR020 N332A (HIV-1) = biological target: 92BR020 N332A (HIV-1)
[34] = biological target: HIV-1 Env of pseudovirus BJOX025000.01.1 (HIV-1)
[35] = biological target: HIV-1 Env of pseudovirus Ce2010_F5 (HIV-1)
[36] = biological target: HIV-1 Env of pseudovirus 3817.v2.c59 (HIV-1)

354BG8 (antibody) showed an IC50 in TZM-bl assay [1] of 0.047 µg/mL, an IC80 in TZM-bl assay [1] of 0.113 µg/mL and an IC50 in TZM-bl assay [2] of 1.18 µg/mL. The IC80 in TZM-bl assay [2] was 4.85 µg/mL, the IC50 in TZM-bl assay [3] was over 10 µg/mL and the IC80 in TZM-bl assay [3] was over 10 µg/mL. It also gave an IC50 in TZM-bl assay (92BR020 N156A (HIV-1)) of 0.011 µg/mL, an IC50 in TZM-bl assay [4] of 6 ng/mL and an IC80 in TZM-bl assay [4] of 0.023 µg/mL. For the same substance, the IC50 in TZM-bl assay [5] was 0.047 µg/mL, the IC80 in TZM-bl assay [5] was 0.124 µg/mL and the IC50 in TZM-bl assay [6] was 0.035 µg/mL. The IC80 in TZM-bl assay [6] was 0.119 µg/mL, the IC50 in TZM-bl assay [7] was over 10 µg/mL and the IC80 in TZM-bl assay [7] was over 10 µg/mL. It also gave an IC50 in TZM-bl assay [8] of over 10 µg/mL, an IC80 in TZM-bl assay [8] of over 10 µg/mL and an IC50 in TZM-bl assay [9] of 5 ng/mL. It also gave an IC80 in TZM-bl assay [9] of 0.019 µg/mL, an IC50 in TZM-bl assay [10] of over 10 µg/mL and an IC80 in TZM-bl assay [10] of over 10 µg/mL. For the same substance, the IC50 in TZM-bl assay (JR-CSF N392A (HIV-1)) was 0.014 µg/mL, the IC50 in TZM-bl assay [11] was over 10 µg/mL and the IC80 in TZM-bl assay [11] was over 10 µg/mL. The IC50 in TZM-bl assay (JR-CSF D325A (HIV-1)) was 5 ng/mL, the IC50 in TZM-bl assay [12] was over 10 µg/mL and the IC80 in TZM-bl assay [12] was over 10 µg/mL. For the same substance, the IC50 in TZM-bl assay [13] was over 50 µg/mL, the IC50 in TZM-bl assay [14] was 3 ng/mL and the IC50 in TZM-bl assay [15] was 0.011 µg/mL. For the same substance, the IC80 in TZM-bl assay [15] was 0.037 µg/mL, the IC50 in TZM-bl assay [16] was 0.017 µg/mL and the IC80 in TZM-bl assay [16] was 0.048 µg/mL. For the same substance, the IC50 in TZM-bl assay [17] was over 10 µg/mL, the IC80 in TZM-bl assay [17] was over 10 µg/mL and the IC50 in TZM-bl assay [18] was 0.01 µg/mL. The IC80 in TZM-bl assay [18] was 0.036 µg/mL, the IC50 in TZM-bl assay [19] was 0.727 µg/mL and the IC80 in TZM-bl assay [19] was 3.93 µg/mL. For the same substance, the IC50 in TZM-bl assay [20] was 0.026 µg/mL, the IC80 in TZM-bl assay [20] was 0.108 µg/mL and the IC50 in TZM-bl assay [21] was 0.031 µg/mL. For the same substance, the IC80 in TZM-bl assay [21] was 0.093 µg/mL, the IC50 in TZM-bl assay (92BR020 N136A (HIV-1)) was 5 ng/mL and the IC50 in TZM-bl assay (92BR020 I326A (HIV-1)) was 6 ng/mL. The IC50 in TZM-bl assay [22] was 0.072 µg/mL, the IC80 in TZM-bl assay [22] was 0.252 µg/mL and the IC50 in TZM-bl assay [23] was over 10 µg/mL. For the same substance, the IC80 in TZM-bl assay [23] was over 10 µg/mL, the IC50 in TZM-bl assay [24] was over 10 µg/mL and the IC80 in TZM-bl assay [24] was over 10 µg/mL. For the same substance, the IC50 in TZM-bl assay [25] was over 10 µg/mL, the IC80 in TZM-bl assay [25] was over 10 µg/mL and the IC50 in TZM-bl assay [26] was 0.042 µg/mL. It also gave an IC80 in TZM-bl assay [26] of 0.146 µg/mL, an IC50 in TZM-bl assay [27] of 4 ng/mL and an IC80 in TZM-bl assay [27] of 0.013 µg/mL. For the same substance, the IC50 in TZM-bl assay [28] was 0.058 µg/mL, the IC80 in TZM-bl assay [28] was 0.371 µg/mL and the IC50 in TZM-bl assay [29] was over 10 µg/mL. It also gave an IC80 in TZM-bl assay [29] of over 10 µg/mL, an IC50 in TZM-bl assay [30] of over 10 µg/mL and an IC80 in TZM-bl assay [30] of over 10 µg/mL. For the same substance, the IC50 in TZM-bl assay [31] was over 10 µg/mL, the IC80 in TZM-bl assay [31] was over 10 µg/mL and the IC50 in TZM-bl assay [32] was 0.031 µg/mL. For the same substance, the IC80 in TZM-bl assay [32] was 0.112 µg/mL, the IC50 in TZM-bl assay [33] was over 10 µg/mL and the IC80 in TZM-bl assay [33] was over 10 µg/mL. The IC50 in TZM-bl assay (92BR020 N332A (HIV-1)) was over 50 µg/mL, the IC50 in TZM-bl assay [34] was over 10 µg/mL and the IC80 in TZM-bl assay [34] was over 10 µg/mL. For the same substance, the IC50 in TZM-bl assay [35] was over 10 µg/mL, the IC80 in TZM-bl assay [35] was over 10 µg/mL and the IC50 in TZM-bl assay [36] was 0.706 µg/mL. It also gave an IC80 in TZM-bl assay [36] of 4.49 µg/mL.
